Reference: publication PMC3089455
One block for each substance: values may come before it.

Tests used:
[1] = molecular target: Aeromonas hydrophila AhQnr (Aeromonas hydrophila ATCC 7966); assay: AUC
[2] = molecular target: AhQnr Δdouble deletion mutant (both loops removed) with C-terminal hexahistidine tag (Aeromonas hydrophila ATCC 7966); assay: SEC
[3] = molecular target: AhQnr Δloop1 deletion mutant with C-terminal hexahistidine tag (Aeromonas hydrophila ATCC 7966); assay: SEC
[4] = molecular target: AhQnr Δloop2 deletion mutant with C-terminal hexahistidine tag (Aeromonas hydrophila ATCC 7966); assay: SEC

stoichiometry N [1]: 2
Substance: Aeromonas hydrophila AhQnr (natural protein)

stoichiometry N [2]: 2
Substance: AhQnr Δdouble deletion mutant (both loops removed) with C-terminal hexahistidine tag (natural protein)

stoichiometry N [3]: 2
Substance: AhQnr Δloop1 deletion mutant with C-terminal hexahistidine tag (natural protein)

stoichiometry N [4]: 2
Substance: AhQnr Δloop2 deletion mutant with C-terminal hexahistidine tag (natural protein)
